Test results from publication PMC3176292, “Mutations in Protein-Binding Hot-Spots on the Hub Protein Smad3 Differentially Affect Its Protein Interactions and Smad3-Regulated Gene Expression” (PLoS ONE, 2011).

How the values were obtained:
Experiment in all cases: co-IP; LUMIER: Renilla luciferase-Smad3 and Flag-tagged partner co-expressed with constitutively active Alk5 in HEK-293; Flag protein captured from cleared lysate (TNE: 10 mM Tris-HCl pH 7.8, 150 mM NaCl, 1 mM EDTA, 1% Igepal CA-630) on anti-Flag 96-well plates, 2 h at 4 °C; co-precipitated Renilla luciferase activity, TrxGA background subtracted, percent of wild-type Smad3
Conditions in all cases: partners not purified
[1] = biological target: T1, Ski Smad-binding domain (amino acids 2–56) on the 3xFlag-thioredoxin scaffold (UniProt P12755 2-56)
T1 construct: Ski, amino acids 2–56; cloned into the unique RsrII site of pCI-3xFLAG-Trx; also called Ski aa2–56; TrxSki; source: HEK-293, transfected, in lysate
T1 sequence (looked up): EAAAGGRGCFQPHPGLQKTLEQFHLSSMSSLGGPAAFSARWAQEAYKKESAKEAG

Flag-Smad3, full length = biological target: T2, Flag-Smad3, full length (UniProt P84022 1-425)
T2 construct: Smad3; plasmid pCMV5-Flag-Smad3 (from J. Massagué); bait for Smad3-Smad3 association; also called Smad3 FL; source: HEK-293, transfected together with constitutively active Alk5, in lysate

[2] = biological target: T3, Smurf2 Smad-binding domain (amino acids 252–330) on the Flag-thioredoxin scaffold (UniProt Q9HAU4 252-330)
T3 construct: Smurf2, amino acids 252–330; also called Smurf2 aa252–330; TrxSmurf2; source: HEK-293, transfected, in lysate

[3] = biological target: T4, SIP1 Smad-binding domain (amino acids 315–487) on the 3xFlag-thioredoxin scaffold (UniProt Q9R0G7 315-487)
T4 construct: SIP1, amino acids 315–487; amplified from pACT2-SIP1-315-487 (from D. Huylebroeck), which I recall as a mouse clone; cloned into the RsrII site of pCI-3xFLAG-Trx; also called Sip1 315–487; TrxSIP1; source: HEK-293, transfected, in lysate
T4 sequence (looked up): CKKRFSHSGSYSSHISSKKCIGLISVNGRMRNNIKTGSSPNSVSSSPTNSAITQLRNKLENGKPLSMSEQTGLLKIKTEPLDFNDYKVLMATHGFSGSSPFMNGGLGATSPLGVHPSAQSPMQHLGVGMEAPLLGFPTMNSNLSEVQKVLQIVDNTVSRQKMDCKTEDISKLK

[4] = biological target: T5, SARA Smad-binding domain (amino acids 665–721) on the 3xFlag-thioredoxin scaffold (UniProt O95405 767-823)
T5 construct: SARA, amino acids 665–721; cloned into the unique RsrII site of pCI-3xFLAG-Trx; also called SARA aa665–721; TrxSARA; source: HEK-293, transfected, in lysate
T5 sequence (looked up): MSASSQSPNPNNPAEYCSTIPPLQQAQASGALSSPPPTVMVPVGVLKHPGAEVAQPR

[5] = biological target: T6, Flag-SkiW274E, full length (UniProt P12755 1-728, W274E)
T6 construct: plasmid pCMV5b-Flag-SkiW274E (from K. Luo); also called SkiW274E FL; SKI274E; source: HEK-293, transfected, in lysate
T6 sequence (looked up): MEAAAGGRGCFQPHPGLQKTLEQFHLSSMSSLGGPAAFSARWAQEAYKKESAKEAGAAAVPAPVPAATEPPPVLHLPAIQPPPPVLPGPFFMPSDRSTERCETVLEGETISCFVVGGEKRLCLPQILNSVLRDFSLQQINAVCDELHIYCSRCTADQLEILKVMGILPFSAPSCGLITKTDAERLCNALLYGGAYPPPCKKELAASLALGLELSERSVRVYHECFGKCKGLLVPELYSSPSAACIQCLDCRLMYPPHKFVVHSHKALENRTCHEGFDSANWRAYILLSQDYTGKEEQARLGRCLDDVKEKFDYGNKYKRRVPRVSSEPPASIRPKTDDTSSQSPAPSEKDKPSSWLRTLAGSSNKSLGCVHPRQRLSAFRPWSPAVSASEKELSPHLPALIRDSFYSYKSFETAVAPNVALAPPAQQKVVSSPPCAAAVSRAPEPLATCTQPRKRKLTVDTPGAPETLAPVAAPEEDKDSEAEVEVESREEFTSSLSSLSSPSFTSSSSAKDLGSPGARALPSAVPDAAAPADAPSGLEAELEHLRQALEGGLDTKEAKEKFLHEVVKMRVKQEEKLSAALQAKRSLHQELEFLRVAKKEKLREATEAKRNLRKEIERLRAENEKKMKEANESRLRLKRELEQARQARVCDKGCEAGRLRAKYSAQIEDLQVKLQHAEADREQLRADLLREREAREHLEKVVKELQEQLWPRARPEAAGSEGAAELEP

T3 sequence (Q9HAU4 252-330): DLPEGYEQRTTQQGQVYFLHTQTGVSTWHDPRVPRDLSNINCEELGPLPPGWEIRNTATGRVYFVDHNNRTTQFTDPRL

percent binding relative to wild-type Smad3 [1]: 271%
percent binding relative to wild-type Smad3 (Flag-Smad3, full length): 113%
percent binding relative to wild-type Smad3 [2]: 144%
percent binding relative to wild-type Smad3 [3]: 33%
percent binding relative to wild-type Smad3 [4]: 73%
percent binding relative to wild-type Smad3 [5]: 121%
B1: Renilla luciferase-Smad3 Y298A (natural protein, UniProt P84022 1-425, looked up)
chain: MSSILPFTPPIVKRLLGWKKGEQNGQEEKWCEKAVKSLVKKLKKTGQLDELEKAITTQNVNTKCITIPRSLDGRLQVSHRKGLPHVIYCRLWRWPDLHSHHELRAMELCEFAFNMKKDEVCVNPYHYQRVETPVLPPVLVPRHTEIPAEFPPLDDYSHSIPENTNFPAGIEPQSNIPETPPPGYLSEDGETSDHQMNHSMDAGSPNLSPNPMSPAHNNLDLQPVTYCEPAFWCSISYYELNQRVGETFHASQPSMTVDGFTDPSNSERFCLGLLSNVNRNAAVELTRRHIGRGVRLYAIGGEVFAECLSDSAIFVQSPNCNQRYGWHPATVCKIPPGCNLKIFNNQEFAALLAQSVNQGFEAVYQLTRMCTIRMSFVKGWGAEYRRQTVTSTPCWIELHLNGPLQWLDKVLTQMGSPSIRCSSVS
notes: Smad3; source: HEK-293, transfected together with constitutively active Alk5, in lysate
